5 molecules from patent US20250002605A1 (WUHAN YZY BIOPHARMA, published 2025) can be followed below.

The target of assay [1] is T1, human EpCAM on the cell surface (human, UniProt P16422 24-314).
T1 sequence (looked up): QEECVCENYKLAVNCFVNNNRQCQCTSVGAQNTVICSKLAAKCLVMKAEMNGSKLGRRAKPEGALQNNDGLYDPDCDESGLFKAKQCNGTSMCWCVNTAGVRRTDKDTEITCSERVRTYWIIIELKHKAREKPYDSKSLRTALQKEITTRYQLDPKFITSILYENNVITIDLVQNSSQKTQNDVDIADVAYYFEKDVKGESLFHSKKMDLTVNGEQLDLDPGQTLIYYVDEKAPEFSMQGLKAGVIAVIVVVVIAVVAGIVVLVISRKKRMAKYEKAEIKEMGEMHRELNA
The assay can be described thus: cell-based or functional assay.

For assay [2], the target named is CD3 on Jurkat cells. The assay can be described thus: cell-based or functional assay.
In assay [3] the target is T1, human EpCAM on the cell surface. The assay can be described thus: cell-based or functional assay. This is another data set of the same source.
In assay [4] the target is CD3 on Jurkat cells. The experiment in a line: cell-based or functional assay. The source holds these as a separate data set.
The target in assay [5] is T1, human EpCAM on the cell surface. The assay can be described thus: flow cytometry (FACS) on HCT116 cells, PE anti-human IgG Fc detection.
In assay [6] the target is T2, human EpCAM antigen (SB, Cat: 10694-H08H) (human, UniProt P16422 24-265).
T2 construct: Bought antigen immobilised on a CM5 chip
T2 sequence (looked up): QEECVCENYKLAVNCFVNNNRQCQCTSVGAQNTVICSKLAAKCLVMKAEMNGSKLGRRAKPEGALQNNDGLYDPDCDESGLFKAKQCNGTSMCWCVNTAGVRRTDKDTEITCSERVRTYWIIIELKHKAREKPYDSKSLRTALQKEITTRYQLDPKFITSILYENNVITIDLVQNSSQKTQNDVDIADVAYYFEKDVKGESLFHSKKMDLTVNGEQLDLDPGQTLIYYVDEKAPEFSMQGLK
The experiment in a line: SPR (Biacore T200), antigen amine-coupled on CM5, antibody as analyte, 1:1 fit; D0 sample. In general terms: SPR reads the build-up and loss of mass on a sensor chip optically.

Assay [7] has as its target T2, human EpCAM antigen (SB, Cat: …). The assay can be described thus: SPR (Biacore T200), antigen amine-coupled on CM5, antibody as analyte, 1:1 fit; D14 sample after 14 days at 40 C.
Assay [8] has as its target T3, human CD3 antigen (SB, Cat: CT038-H2508H) (human, UniProt P07766 23-126; P04234 22-105). The experiment in a line: SPR (Biacore T200), antigen amine-coupled on CM5, antibody as analyte, 1:1 fit; D0 sample.
Assay [9] deals with T3, human CD3 antigen (SB, Cat: …). The assay can be described thus: SPR (Biacore T200), CD3 antigen amine-coupled on CM5, antibody as analyte, 1:1 fit.
Assay [10] shares this target. The experiment in a line: SPR (Biacore T200), antigen amine-coupled on CM5, antibody as analyte, 1:1 fit; D14 sample after 14 days at 40 C.

B1: M701A (bispecific antibody, human IgG1, kappa)
light: ELVMTQSPSSLTVTAGEKVTMSCKSSQSLLNSGNQKNYLTWYQQKPGQPPKLLIYWASTRESGVPDRFTGSGSGTDFTLTISSVQAEDLAVYYCQNDYSYPLTFGAGTKLEIKRTVAAPSVFIFPPSDEQLKSGTASVVCLLNNFYPREAKVQWKVDNALQSGNSQESVTEQDSKDSTYSLSSTLTLSKADYEKHKVYACEVTHQGLSSPVTKSFNRGEC
heavy: EVQLLEQSGAELVRPGTSVKISCKASGYAFTNYWLGWVKQRPGHGLEWIGDIFPGSGNIHYNEKFKGKATLTADKSSSTAYMQLSSLTFEDSAVYFCARLRNWDEPMDYWGQGTTVTVSSASTKGPSVFPLAPSSKSTSGGTAALGCLVKDYFPEPVTVSWNSGALTSGVHTFPAVLQSSGLYSLSSVVTVPSSSLGTQTYICNVNHKPSNTKVDKKVEPKSCDKTHTCPPCPAPELLGGPSVFLFPPKPKDTLMISRTPEVTCVVVDVSHEDPEVKFNWYVDGVEVHNAKTKPREEQYNSTYRVVSVLTVLHQDWLNGKEYKCKVSNKALPAPIEKTISKAKGQPREPQVYTLPPSRDELTKNQVSLWCLVKGFYPSDIAVEWESNGQPENNYDTTPPVLDSDGSFFLYSDLTVDKSRWQQGNVFSCSVMHEALHNHYTQKSLSLSPGK
chain: not shown
notes: YBODY format; also called bispecific antibody M701A
For the molecule B1, the “cell bridging of HCT116 and Jurkat cells (CFSE/PKH26 double-positive cells, flow cytometry)” value in assay [1] and in [2] was ~40 % of the total PKH26-positive cells each time. In addition, the “EC50 (read off the curve), cell bridging of HCT116 and Jurkat [panel C]” value in assay [3] and in assay [4] was ~10 ng/mL each time. Besides, the response in assay [5] was half-maximal at 3.56 nM (EC50). Besides, the Kd (in general, the concentration at which binding is half-saturated) came to 17.1 nM in assay [6] and 17.3 nM in assay [7].

B2: M701G (bispecific antibody, human IgG1, kappa)
light: ELVMTQSPSSLTVTAGEKVTMSCKSSQSLLNSGNQKNYLTWYQQKPGQPPKLLIYWASTRESGVPDRFTGSGSGTDFTLTISSVQAEDLAVYYCQNDYSYPLTFGAGTKLEIKRTVAAPSVFIFPPSDEQLKSGTASVVCLLNNFYPREAKVQWKVDNALQSGNSQESVTEQDSKDSTYSLSSTLTLSKADYEKHKVYACEVTHQGLSSPVTKSFNRGEC
heavy: EVQLLEQSGAELVRPGTSVKISCKASGYAFTNYWLGWVKQRPGHGLEWIGDIFPGSGNIHYNEKFKGKATLTADKSSSTAYMQLSSLTFEDSAVYFCARLRNWDEPMDYWGQGTTVTVSSASTKGPSVFPLAPSSKSTSGGTAALGCLVKDYFPEPVTVSWNSGALTSGVHTFPAVLQSSGLYSLSSVVTVPSSSLGTQTYICNVNHKPSNTKVDKKVEPKSCDKTHTCPPCPAPELLGGPSVFLFPPKPKDTLMISRTPEVTCVVVDVSHEDPEVKFNWYVDGVEVHNAKTKPREEQYNSTYRVVSVLTVLHQDWLNGKEYKCKVSNKALPAPIEKTISKAKGQPREPQVYTLPPSRDELTKNQVSLWCLVKGFYPSDIAVEWESNGQPENNYDTTPPVLDSDGSFFLYSDLTVDKSRWQQGNVFSCSVMHEALHNHYTQKSLSLSPGK
chain: EVQLVESGGGLVQPGGSLRLSCAASGYSFTGYTMNWVRQAPGKGLEWVALINPYKGVSTYNQKFKDRFTISVDKSKNTAYLQMNSLRAEDTAVYYCARSGYYGDSDWYFDVWGQGTLVTVSSGGGGSGGGGSGGGGSDIQMTQSPSSLSASVGDRVTITCRASQDIRNYLNWYQQKPGKAPKLLIYYTSRLESGVPSRFSGSGSGTDYTLTISSLQPEDFATYYCQQGNTLPWTFGQGTKVEIKGAAAEPKSCDKTHTCPPCPAPELLGGPSVFLFPPKPKDTLMISRTPEVTCVVVDVSHEDPEVKFNWYVDGVEVHNAKTKPREEQYNSTYRVVSVLTVLHQDWLNGKEYKCKVSNKALPAPIEKTISKAKGQPREPQVYTLPPSRDELTKNQVSLTCRVKGFYPSDIAVEWESNGQPENNYKTTPPVLKSDGSFFLASKLTVDKSRWQQGNVFSCSVMHEALHNHYTQKSLSLSPGK
notes: YBODY format; also called bispecific antibody M701G
Turning to B2, the equilibrium dissociation constant (Kd) was determined as 19.7 nM in [6] and 18.8 nM in [8].

B3: M701J (bispecific antibody, human IgG1, kappa)
light: ELVMTQSPSSLTVTAGEKVTMSCKSSQSLLNSGNQKNYLTWYQQKPGQPPKLLIYWASTRESGVPDRFTGSGSGTDFTLTISSVQAEDLAVYYCQNDYSYPLTFGAGTKLEIKRTVAAPSVFIFPPSDEQLKSGTASVVCLLNNFYPREAKVQWKVDNALQSGNSQESVTEQDSKDSTYSLSSTLTLSKADYEKHKVYACEVTHQGLSSPVTKSFNRGEC
heavy: EVQLLEQSGAELVRPGTSVKISCKASGYAFTNYWLGWVKQRPGHGLEWIGDIFPGSGNIHYNEKFKGKATLTADKSSSTAYMQLSSLTFEDSAVYFCARLRNWDEPMDYWGQGTTVTVSSASTKGPSVFPLAPSSKSTSGGTAALGCLVKDYFPEPVTVSWNSGALTSGVHTFPAVLQSSGLYSLSSVVTVPSSSLGTQTYICNVNHKPSNTKVDKKVEPKSCDKTHTCPPCPAPPVAGPSVFLFPPKPKDTLMISRTPEVTCVVVDVSHEAPEVQFNWYVDGVEVHNAKTKPREEQFNSTFRVVSVLTVVHQDWLNGKEYKCKVSNKGLPAPIEKTISKTKGQPREPQVYTLPPCRDELTKNQVSLWCLVKGFYPSDIAVEWESNGQPENNYKTTPPVLDSDGSFFLYSKLTVDKSRWQQGNVFSCSVMHEALHNHYTQKSLSLSPGK
chain: not shown
notes: YBODY format; also called bispecific antibody M701J
For the molecule B3, a half-maximal response in [5] (EC50) required 3.78 nM. Also, the dissociation constant Kd in assay [6] was found to be 18.2 nM; in [7] it was 18.7 nM.

B4: M701K (bispecific antibody, human IgG1, kappa)
light: ELVMTQSPSSLTVTAGEKVTMSCKSSQSLLNSGNQKNYLTWYQQKPGQPPKLLIYWASTRESGVPDRFTGSGSGTDFTLTISSVQAEDLAVYYCQNDYSYPLTFGAGTKLEIKRTVAAPSVFIFPPSDEQLKSGTASVVCLLNNFYPREAKVQWKVDNALQSGNSQESVTEQDSKDSTYSLSSTLTLSKADYEKHKVYACEVTHQGLSSPVTKSFNRGEC
heavy: EVQLLEQSGAELVRPGTSVKISCKASGYAFTNYWLGWVKQRPGHGLEWIGDIFPGSGNIHYNEKFKGKATLTADKSSSTAYMQLSSLTFEDSAVYFCARLRNWDEPMDYWGQGTTVTVSSASTKGPSVFPLAPSSKSTSGGTAALGCLVKDYFPEPVTVSWNSGALTSGVHTFPAVLQSSGLYSLSSVVTVPSSSLGTQTYICNVNHKPSNTKVDKKVEPKSCDKTHTCPPCPAPPVAGPSVFLFPPKPKDTLMISRTPEVTCVVVDVSHEAPEVQFNWYVDGVEVHNAKTKPREEQFNSTFRVVSVLTVVHQDWLNGKEYKCKVSNKGLPAPIEKTISKTKGQPREPQVYTLPPCRDELTKNQVSLWCLVKGFYPSDIAVEWESNGQPENNYKTTPPVLDSDGSFFLYSKLTVDKSRWQQGNVFSCSVMHEALHNHYTQKSLSLSPGK
chain: QVQLVESGGGVVQPGRSLRLSCAASGFTFSTYAMNWVRQAPGKGLEWVARIRSKYNNYATYYADSVKDRFTISRDDSKNTLYLQMNSLRAEDTAVYYCARHGNFGNSYVSWFAYWGQGTLVTVSSGGGGSGGGGSGGGGSQTVVTQEPSLTVSPGGTVTLTCRSSTGAVTTSNYANWVQQKPGQAPRGLIGGTNKRAPGVPARFSGSLLGGKAALTLSGVQPEDEAEYYCALWYSNLWVFGGGTKVEIKGAAAEPKSCDKTHTCPPCPAPPVAGPSVFLFPPKPKDTLMISRTPEVTCVVVDVSHEAPEVQFNWYVDGVEVHNAKTKPREEQFNSTFRVVSVLTVVHQDWLNGKEYKCKVSNKGLPAPIEKTISKTKGQPREPQVCTLPPSRDELTKNQVSLSCAVKGFYPSDIAVEWESNGQPENNYKTTPPVLDSDGSFFLVSKLTVDKSRWQQGNVFSCSVMHEALHNHYTQKSLSLSPGK
notes: YBODY format; also called bispecific antibody M701K
B4: in assay [5], the EC50 – broadly, the concentration at which the effect is half-maximal – stood at 5.65 nM. The Kd in assay [9] is 28.8 nM; in [6] it was 21.1 nM; in assay [8], 28.8 nM; in assay [7] it was 22.6 nM; in [10], 30.6 nM.

B5: M701 (bispecific antibody, human IgG1, kappa)
light: ELVMTQSPSSLTVTAGEKVTMSCKSSQSLLNSGNQKNYLTWYQQKPGQPPKLLIYWASTRESGVPDRFTGSGSGTDFTLTISSVQAEDLAVYYCQNDYSYPLTFGAGTKLEIKRTVAAPSVFIFPPSDEQLKSGTASVVCLLNNFYPREAKVQWKVDNALQSGNSQESVTEQDSKDSTYSLSSTLTLSKADYEKHKVYACEVTHQGLSSPVTKSFNRGEC
heavy: EVQLLEQSGAELVRPGTSVKISCKASGYAFTNYWLGWVKQRPGHGLEWIGDIFPGSGNIHYNEKFKGKATLTADKSSSTAYMQLSSLTFEDSAVYFCARLRNWDEPMDYWGQGTTVTVSSASTKGPSVFPLAPSSKSTSGGTAALGCLVKDYFPEPVTVSWNSGALTSGVHTFPAVLQSSGLYSLSSVVTVPSSSLGTQTYICNVNHKPSNTKVDKKVEPKSCDKTHTCPPCPAPELLGGPSVFLFPPKPKDTLMISRTPEVTCVVVDVSHEDPEVKFNWYVDGVEVHNAKTKPREEQYNSTYRVVSVLTVLHQDWLNGKEYKCKVSNKALPAPIEKTISKAKGQPREPQVYTLPPSRDELTKNQVSLWCLVKGFYPSDIAVEWESNGQPENNYDTTPPVLDSDGSFFLYSDLTVDKSRWQQGNVFSCSVMHEALHNHYTQKSLSLSPGK
chain: not shown
notes: also called bispecific antibody M701
B5: the “killing EC50 (PBMC effector cells, HCT116 target cells)” value in assay [1] turned out to be 69.2 ng/mL. Further, in assay [5], the midpoint of the response, the EC50, lay at 10.5 nM.
